Measurements reported in US20120165340.

Target: FLAG-HA-PTEN (UniProt P60484)
Sequence (P60484 whole entry): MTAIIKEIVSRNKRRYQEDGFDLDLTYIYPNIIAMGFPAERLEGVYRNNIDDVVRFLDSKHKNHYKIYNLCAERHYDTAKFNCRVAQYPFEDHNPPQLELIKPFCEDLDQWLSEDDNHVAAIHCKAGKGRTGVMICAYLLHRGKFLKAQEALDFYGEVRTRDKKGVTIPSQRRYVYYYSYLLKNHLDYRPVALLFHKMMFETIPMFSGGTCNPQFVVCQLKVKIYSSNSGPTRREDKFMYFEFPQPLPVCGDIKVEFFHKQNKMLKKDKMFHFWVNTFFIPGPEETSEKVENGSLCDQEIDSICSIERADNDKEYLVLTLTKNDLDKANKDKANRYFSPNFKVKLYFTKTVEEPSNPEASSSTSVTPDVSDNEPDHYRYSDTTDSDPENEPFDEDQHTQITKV

c-src
tyrosine phosphorylation of PTEN (Western blot with 4G10 and anti-pY240, FIG. 15): although src and lyn both phosphorylate PTEN on tyrosine, the phosphorylation of Y240 is much greater in the presence of lyn than when src is expressed with PTEN
tyrosine phosphorylation sites on PTEN identified by mass spectrometry: We identified four sites of tyrosine phosphorylation in the PTEN phosphatase domain (Y46, Y68, Y155 and Y174) and two sites in the PTEN C2 domain (Y240 and Y315)
